This note sets out measurements from patent US20250064934A1 (CENTURY THERAPEUTICS, published 2025).

Assay [1] has as its target T1, CD22 expressed on the cell surface (Raji, Daudi, CHO-CD22 and other CD22+ cells) (UniProt P20273 20-847, limits assumed).
T1 construct: whole, on cells; also called CD22 positive Raji cells; CD22+ Raji cells
T1 sequence (looked up): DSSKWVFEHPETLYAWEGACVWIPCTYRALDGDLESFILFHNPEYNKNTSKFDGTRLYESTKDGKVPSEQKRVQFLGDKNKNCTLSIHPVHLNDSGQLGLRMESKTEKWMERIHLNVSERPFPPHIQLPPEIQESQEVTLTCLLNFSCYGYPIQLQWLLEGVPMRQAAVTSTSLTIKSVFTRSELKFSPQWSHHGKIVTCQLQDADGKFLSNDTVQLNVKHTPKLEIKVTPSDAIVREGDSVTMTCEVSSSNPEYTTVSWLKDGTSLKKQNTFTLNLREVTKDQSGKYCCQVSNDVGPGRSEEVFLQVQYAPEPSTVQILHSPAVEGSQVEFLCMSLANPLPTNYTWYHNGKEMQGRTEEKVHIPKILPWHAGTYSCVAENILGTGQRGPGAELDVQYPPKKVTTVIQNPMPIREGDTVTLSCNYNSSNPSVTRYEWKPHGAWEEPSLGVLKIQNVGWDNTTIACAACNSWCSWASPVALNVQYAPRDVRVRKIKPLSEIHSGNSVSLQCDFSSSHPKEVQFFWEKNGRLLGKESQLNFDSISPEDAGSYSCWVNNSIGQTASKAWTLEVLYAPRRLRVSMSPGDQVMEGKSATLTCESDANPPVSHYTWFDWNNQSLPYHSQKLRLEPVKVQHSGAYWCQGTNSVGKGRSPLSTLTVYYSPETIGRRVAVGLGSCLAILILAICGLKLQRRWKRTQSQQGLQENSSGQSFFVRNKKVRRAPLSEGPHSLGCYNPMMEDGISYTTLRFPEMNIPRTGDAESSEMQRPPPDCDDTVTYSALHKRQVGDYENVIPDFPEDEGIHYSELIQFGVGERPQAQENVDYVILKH
The assay can be described thus: flow cytometry on Raji cells, PE-labeled anti-human IgG Fc detection. The protocol: FIGS. 1A-C show results of VHH-Fc fusion proteins that were examined by flow cytometry for CD22 cellular binding in Raji cells. […] No binding was seen to Raji CD22 knock-out cells. B) PROT265 and PROT810 (an affinity matured variant of PROT265) bind to Raji cells, with PROT810 showing improved binding relative to PROT265.
(§1) VHH-Fc proteins were tested for binding to CD22 expressed on the cell surface. VHH-Fc proteins were serially diluted and added to Raji cells and incubated at 4 C for 30 minutes. Cells were washed once in BD staining buffer, BSA (BD Pharmingen), then PE-labeled anti-human IgG Fc (Jackson Immnoresearch) was added to detect VHH-Fc cell binding and incubated at 4 C for 30 minutes. Cells were washed once, then resuspended in staining buffer with 0.1% pluronic acid and run through a flow cytometer to detect the fluorescent labeling of the VHH-Fc cells.

For assay [2], the target named is T2, monomeric CD22 (Acro Biosystems) (UniProt P20273 20-687).
T2 construct: Bought protein; also called CD22 antigen; soluble CD22 protein
T2 sequence (looked up): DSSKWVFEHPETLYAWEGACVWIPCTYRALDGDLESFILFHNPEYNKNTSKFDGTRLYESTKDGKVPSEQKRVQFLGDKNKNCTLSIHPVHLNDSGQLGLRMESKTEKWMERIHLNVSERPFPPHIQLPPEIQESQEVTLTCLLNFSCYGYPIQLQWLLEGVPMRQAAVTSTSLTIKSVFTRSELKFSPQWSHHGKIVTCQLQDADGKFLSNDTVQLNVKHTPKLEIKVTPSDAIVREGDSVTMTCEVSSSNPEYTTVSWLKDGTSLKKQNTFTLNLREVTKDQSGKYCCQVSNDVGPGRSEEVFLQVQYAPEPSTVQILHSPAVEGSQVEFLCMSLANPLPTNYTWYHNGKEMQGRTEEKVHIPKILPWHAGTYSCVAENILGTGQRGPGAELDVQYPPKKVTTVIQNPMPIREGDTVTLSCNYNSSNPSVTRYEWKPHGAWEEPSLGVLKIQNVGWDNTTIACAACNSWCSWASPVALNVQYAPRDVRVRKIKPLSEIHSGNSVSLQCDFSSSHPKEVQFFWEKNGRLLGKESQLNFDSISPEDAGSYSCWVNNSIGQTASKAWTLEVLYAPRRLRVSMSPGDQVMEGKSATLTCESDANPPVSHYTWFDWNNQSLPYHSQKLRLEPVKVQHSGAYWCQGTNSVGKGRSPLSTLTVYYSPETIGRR
The assay can be described thus: BLI (ForteBio Octet Red), VHH-Fc captured on anti-human IgG Fc sensor, monomeric CD22 at 250 nM. The protocol:
(§2) VHH-Fc fusion proteins were assessed for affinity against monomeric CD22 (Acro Biosystems) using the ForteBio Octet Red BLI instrument. VHH-Fc proteins were captured onto an anti-human IgG Fc sensor at 50 nM. Sensor tips were quenched with human IgG Fc protein at 100 nM, then CD22 antigen was added at 250 nM to assess binding kinetics. Association was examined for 600 seconds and dissociation was examined for 600 seconds, allowing for calculation of Kon, Kdis and KD.

Assay [3] concerns the target T1, CD22 expressed on the cell surface …. Kind of assay: cell-based or functional assay.
The target of assay [4] is T2, monomeric CD22 (Acro Biosystems). The assay can be described thus: protein affinity of VHH-IgG1 Fc fusions (summary sentence, method not named there); before affinity maturation. The protocol: as §2
The target in assay [5] is T1, CD22 expressed on the cell surface …. The assay can be described thus: flow cytometry on Raji cells, serially diluted VHH-Fc, detection with PE anti-human IgG Fc, % positive cells. The protocol:
as §1

The target of assay [6] is T2, monomeric CD22 (Acro Biosystems). The assay can be described thus: BLI affinity assessment of VHH-Fc fusions. The protocol:
as §2
(§3) The D04 clone was affinity matured by scanning mutagenesis of the CDRs and phage display selections for higher affinity clones. Variants were isolated and expressed as VHH-Fc fusions for affinity assessment.

Assay [7] shares this target. The assay can be described thus: protein affinity of VHH-IgG1 Fc fusions (summary sentence, method not named there); after affinity maturation of CDR3. On the procedure: as §2, §3

Positions count from the first letter of the chain named. Where only a bound is given, the exact number is not on record here.

B1: PROT740 (E04) VHH-Fc fusion protein (Fc fusion)
chain: EVQLLESGGGLVQPGGSLRLSCAASGFTSSSYVMGWYRQAPGKEREFVSSISTGGDAYYADSVKGRFTISRDNSKNTLYLQMNSLRAEDTAVYYCAADVWYYHGGAYDYWGQGTQVTVSS
notes: VHH fused to the human IgG1 Fc domain; not shown: human IgG1 Fc domain
With B1, the EC50 in assay [1] is roughly 2 nM. In addition, in assay [2], binding was characterised by a dissociation constant (Kd) of 23.3 nM, the koff was 0.000536 s⁻¹ and the on-rate constant (kon) came to 23000 M⁻¹ s⁻¹.

B2: tandem VHH CAR D04_AM_D11-E04 (P1730) (bispecific antibody, part only; not given: which CAR backbone was used, part only)
chain, part: QVQLVESGGGLVQAGGSLRLSCAASGSEFTGYPMGWFRQAPGKEREFVAGSVGIGGSTNYADSVKGRFTISRDNAKNTVYLQMNSLKPEDTAVYYCAADKDYYKPYSRYRTAIRYDTWGQGTQVTVSSGSTSGSGKPGSGEGSTKGEVQLLESGGGLVQPGGSLRLSCAASGFTSSSYVMGWYRQAPGKEREFVSSISTGGDAYYADSVKGRFTISRDNSKNTLYLQMNSLRAEDTAVYYCAADVWYYHGGAYDYWGQGTQVTVSS
In the case of B2, in assay [3], the Raji cell killing by CAR-T cells (flow cytometry, 48 hours) was 40%.

B3: tandem VHH CAR E04-D04_AM_D11 (P1738) (bispecific antibody, part only; not given: which CAR backbone was used, part only)
chain, part: EVQLLESGGGLVQPGGSLRLSCAASGFTSSSYVMGWYRQAPGKEREFVSSISTGGDAYYADSVKGRFTISRDNSKNTLYLQMNSLRAEDTAVYYCAADVWYYHGGAYDYWGQGTQVTVSSGSTSGSGKPGSGEGSTKGQVQLVESGGGLVQAGGSLRLSCAASGSEFTGYPMGWFRQAPGKEREFVAGSVGIGGSTNYADSVKGRFTISRDNAKNTVYLQMNSLKPEDTAVYYCAADKDYYKPYSRYRTAIRYDTWGQGTQVTVSS
With B3, the Raji cell killing by CAR-T cells (flow cytometry, 48 hours) in assay [3] is less than 20%.

B4: PROT265 (D04) VHH-Fc fusion protein (Fc fusion)
chain: QVQLVESGGGLVQAGGSLRLSCAASGSEFTGYPMGWFRQAPGKEREFVAGSVGIGGSTNYADSVKGRFTISRDNAKNTVYLQMNSLKPEDTAVYYCAADKDYYKPYSRYRTVIRYETWGQGTQVTVSS
notes: also called CD22_D04; not shown: human IgG1 Fc domain
B4 displayed a Kd in assay [4] of 30 nM. For the same molecule, the “EC50 (read off the curve)” value in assay [5] was roughly 1 nM. In assay [2], this molecule gave a Kd of 31.9 nM, a koff of 0.00257 s⁻¹ and a kon of 80800 M⁻¹ s⁻¹.

B5: PROT810 (D04-AM-D11) VHH-Fc fusion protein (Fc fusion)
chain: B4 chain with V112A, E116D
notes: I took that entry to be D04-AM-D11 on the strength of the name; also called DO4-D11-CD22 VHH; not shown: human IgG1 Fc domain
As to B5, in assay [6], the “fold improvement of affinity over the D04 clone” value was 5 fold. The affinity in assay [7], expressed as Kd, was 5 nM. In assay [2], this molecule registered a Kd of 6.97 nM, a koff of 0.000657 s⁻¹ and a kon of 94300 M⁻¹ s⁻¹.

B6: PROT739 (A01) VHH-Fc fusion protein (Fc fusion)
chain: EVQLLESGGGLVQPGGSLRLSCAASGLTSYSYAMGWYRQAPGKEREFVSAISSGGSAYYADSVKGRFTISRDNSKNTLYLQMNSLRAEDTAVYYCAVGPYYGFRAVTEADYWGQGTQVTVSS
notes: as for B1
On to B6, for which, in assay [1], the EC50 was roughly 2 nM. Also, in assay [2], the equilibrium dissociation constant (Kd) was determined as 96.1 nM, the koff worked out at 0.0102 s⁻¹ and the kon came out at 106000 M⁻¹ s⁻¹.
